This test has as its target MepS (E. coli) (UniProt P0AFV4). As to the kind of experiment: MST.

MepS (E. coli), sequence (P0AFV4 27-188): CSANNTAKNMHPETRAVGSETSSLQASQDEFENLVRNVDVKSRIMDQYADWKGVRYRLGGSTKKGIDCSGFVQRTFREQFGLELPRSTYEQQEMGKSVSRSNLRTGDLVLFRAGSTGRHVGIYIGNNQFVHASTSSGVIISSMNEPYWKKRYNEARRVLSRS

A word on the Kd: it is the concentration at which binding is half-saturated. With “NlpI (soluble version, residues 19-294) (from UniProt P0AFB1 19-294) (natural protein)”, the Kd stood at 145 nM.
